T1: CD101 (human, UniProt Q93033 21-1021)
T1 sequence (looked up): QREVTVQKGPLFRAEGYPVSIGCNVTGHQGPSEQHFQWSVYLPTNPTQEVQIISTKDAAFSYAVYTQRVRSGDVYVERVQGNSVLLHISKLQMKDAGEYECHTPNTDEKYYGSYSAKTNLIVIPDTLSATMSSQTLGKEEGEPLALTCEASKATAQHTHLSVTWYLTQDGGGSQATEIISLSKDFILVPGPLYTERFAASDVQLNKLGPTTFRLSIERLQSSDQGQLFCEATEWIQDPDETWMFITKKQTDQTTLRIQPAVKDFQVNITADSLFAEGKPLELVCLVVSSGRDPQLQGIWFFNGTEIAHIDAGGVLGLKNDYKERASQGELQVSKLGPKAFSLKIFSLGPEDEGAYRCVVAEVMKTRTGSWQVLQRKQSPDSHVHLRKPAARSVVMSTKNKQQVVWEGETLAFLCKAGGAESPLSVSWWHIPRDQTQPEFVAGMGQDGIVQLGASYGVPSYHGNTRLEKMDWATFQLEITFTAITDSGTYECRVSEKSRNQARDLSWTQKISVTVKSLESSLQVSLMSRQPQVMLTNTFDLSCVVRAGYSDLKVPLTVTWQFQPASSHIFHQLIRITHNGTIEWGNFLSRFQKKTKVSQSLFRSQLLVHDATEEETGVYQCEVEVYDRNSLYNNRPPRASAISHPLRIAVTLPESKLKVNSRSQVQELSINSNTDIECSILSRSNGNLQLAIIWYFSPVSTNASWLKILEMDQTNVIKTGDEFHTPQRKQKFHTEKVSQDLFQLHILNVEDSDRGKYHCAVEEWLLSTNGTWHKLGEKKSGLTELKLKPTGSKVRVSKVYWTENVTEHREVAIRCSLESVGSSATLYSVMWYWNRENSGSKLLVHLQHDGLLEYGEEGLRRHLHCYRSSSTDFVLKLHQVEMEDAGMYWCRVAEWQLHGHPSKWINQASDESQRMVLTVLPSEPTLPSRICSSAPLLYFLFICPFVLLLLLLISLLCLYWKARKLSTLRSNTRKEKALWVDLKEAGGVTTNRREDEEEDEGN

T2: CD101 (human, UniProt Q93033 21-1021)
T2 chain: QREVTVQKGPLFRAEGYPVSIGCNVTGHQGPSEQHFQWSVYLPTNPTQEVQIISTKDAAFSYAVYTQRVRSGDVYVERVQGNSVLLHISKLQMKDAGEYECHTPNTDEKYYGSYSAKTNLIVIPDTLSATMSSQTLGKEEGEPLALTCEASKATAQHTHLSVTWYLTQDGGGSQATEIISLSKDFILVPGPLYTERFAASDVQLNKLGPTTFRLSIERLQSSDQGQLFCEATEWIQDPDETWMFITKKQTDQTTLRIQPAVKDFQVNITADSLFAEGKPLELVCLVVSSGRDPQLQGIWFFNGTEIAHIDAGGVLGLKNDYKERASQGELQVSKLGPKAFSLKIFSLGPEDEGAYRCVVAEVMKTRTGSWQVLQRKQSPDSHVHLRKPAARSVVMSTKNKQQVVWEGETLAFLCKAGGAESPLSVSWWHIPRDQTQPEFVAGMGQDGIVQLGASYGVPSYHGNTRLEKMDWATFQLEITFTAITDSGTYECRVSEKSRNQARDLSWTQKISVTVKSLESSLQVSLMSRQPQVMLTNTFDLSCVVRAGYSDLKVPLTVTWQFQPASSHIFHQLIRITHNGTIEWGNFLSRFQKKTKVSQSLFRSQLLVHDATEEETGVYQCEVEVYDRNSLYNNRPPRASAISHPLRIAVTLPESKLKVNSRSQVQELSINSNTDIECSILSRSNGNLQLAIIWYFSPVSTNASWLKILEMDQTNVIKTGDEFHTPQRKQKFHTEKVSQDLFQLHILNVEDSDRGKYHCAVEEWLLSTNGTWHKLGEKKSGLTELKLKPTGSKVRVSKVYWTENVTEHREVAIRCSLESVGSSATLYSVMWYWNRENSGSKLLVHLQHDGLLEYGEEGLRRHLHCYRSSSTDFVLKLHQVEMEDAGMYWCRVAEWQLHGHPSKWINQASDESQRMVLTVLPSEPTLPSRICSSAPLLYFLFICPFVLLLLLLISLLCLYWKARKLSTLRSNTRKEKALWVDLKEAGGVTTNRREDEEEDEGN

B1: 19-A11-H3-B11-VH3VL2 humanized antibody (hu.CA4) (antibody, V domains shown)
VH: EVQLVQSGAEVKKPGASVKVSCKASGFTLTEYTIHWVRQAPGQGLEWIGWFYPGSGGIKYNEKFQDRVTLTADTSISTVYMELSRLRSDDTVVYFCARHAFYRNYEYFDVWGTGTMVTVSS
VL: DIVMTQAPLSLPVTPGTPASISCRSSKSLLHSNGITYLYWYLQKPGQSPQLLIYQMSNLASGVPDRFSSSGSGTDFTLKISRVEAEDVGVYYCAQNLELPLTFGAGTKLEIK
B2: 19-A11-H3-B11 chimeric antibody (CA1) (antibody, V domains shown)
VH: EVQLQQSGAELVRPGASVKLSCKASGFTLTEYTIHWVKQRSGQGLEWIGWFYPGSGGIKYNEKFKDKATLTADESSSTVYMELSRLTSEDSAVYFCARHAFYRNYEYFDVWGTGTTVTVSS
VL: DIVMTQAAFSNPVTLGTSASISCRSSKSLLHSNGITYLYWYLQKPGQSPQLLIYQMSNLASGVPDRFSSSGSGTDFTLRISRVEAEDVGVYYCAQNLELPLTFGAGTKLELK
B3: humanized antibody VH1-VL1 (hu.CA1) (antibody, V domains shown)
VH: EVQLVQSGAEVKKPGASVKVSCKASGFTLTEYTIHWVRQAPGQGLEWIGWFYPGSGGIKYNEKFQDRVTLTADESISTVYMELSRLRSDDTAVYFCARHAFYRNYEYFDVWGTGTMVTVSS
VL: DIVMTQAPFSLPVTPGTPASISCRSSKSLLHSNGITYLYWYLQKPGQSPQLLIYQMSNLASGVPDRFSSSGSGTDFTLKISRVEAEDVGVYYCAQNLELPLTFGAGTKLEIK
B4: humanized antibody VH3-VL1 (hu.CA3) (antibody, V domains shown)
VH: EVQLVQSGAEVKKPGASVKVSCKASGFTLTEYTIHWVRQAPGQGLEWIGWFYPGSGGIKYNEKFQDRVTLTADTSISTVYMELSRLRSDDTVVYFCARHAFYRNYEYFDVWGTGTMVTVSS
VL: DIVMTQAPFSLPVTPGTPASISCRSSKSLLHSNGITYLYWYLQKPGQSPQLLIYQMSNLASGVPDRFSSSGSGTDFTLKISRVEAEDVGVYYCAQNLELPLTFGAGTKLEIK
B5: humanized antibody VH1-VL2 (hu.CA2) (antibody, V domains shown)
VH: EVQLVQSGAEVKKPGASVKVSCKASGFTLTEYTIHWVRQAPGQGLEWIGWFYPGSGGIKYNEKFQDRVTLTADESISTVYMELSRLRSDDTAVYFCARHAFYRNYEYFDVWGTGTMVTVSS
VL: DIVMTQAPLSLPVTPGTPASISCRSSKSLLHSNGITYLYWYLQKPGQSPQLLIYQMSNLASGVPDRFSSSGSGTDFTLKISRVEAEDVGVYYCAQNLELPLTFGAGTKLEIK
B6: humanized antibody VH4-VL2 (antibody, V domains shown)
VH: EVQLVQSGAEVKKPGASVKVSCKASGFTLTEYTIHWVKQAPGQGLEWIGWFYPGSGGIKYNEKFQDRVTLTADESSSTVYMELSRLRSDDTAVYFCARHAFYRNYEYFDVWGTGTMVTVSS
VL: DIVMTQAPLSLPVTPGTPASISCRSSKSLLHSNGITYLYWYLQKPGQSPQLLIYQMSNLASGVPDRFSSSGSGTDFTLKISRVEAEDVGVYYCAQNLELPLTFGAGTKLEIK
notes: IgG1, kappa; tested as culture supernatant; also called VH-HM4 / VL-HM2
B7: humanized antibody VH4-VL3 (antibody, V domains shown)
VH: EVQLVQSGAEVKKPGASVKVSCKASGFTLTEYTIHWVKQAPGQGLEWIGWFYPGSGGIKYNEKFQDRVTLTADESSSTVYMELSRLRSDDTAVYFCARHAFYRNYEYFDVWGTGTMVTVSS
VL: DIVMTQAPFSSPVTLGTPASISCRSSKSLLHSNGITYLYWYQQRPGQSPRLLIYQMSNLASGVPDRFSSSGSGTDFTLKISRVEAEDVGVYYCAQNLELPLTFGAGTKLEIK
notes: IgG1, kappa; tested as culture supernatant; also called VH-HM4 / VL-HM3
B8: humanized antibody VH2-VL1 (antibody, V domains shown)
VH: EVQLVQSGAEVKKPGASVKVSCKASGFTLTEYTIHWVRQAPGQGLEWIGWFYPGSGGIKYNEKFQDRVTLTADESASTVYMELSSLRSEDTAVYFCARHAFYRNYEYFDVWGTGTMVTVSS
VL: DIVMTQAPFSLPVTPGTPASISCRSSKSLLHSNGITYLYWYLQKPGQSPQLLIYQMSNLASGVPDRFSSSGSGTDFTLKISRVEAEDVGVYYCAQNLELPLTFGAGTKLEIK
notes: IgG1, kappa; tested as culture supernatant; also called VH-HM2 / VL-HM1
B9: humanized antibody VH3-VL3 (antibody, V domains shown)
VH: EVQLVQSGAEVKKPGASVKVSCKASGFTLTEYTIHWVRQAPGQGLEWIGWFYPGSGGIKYNEKFQDRVTLTADTSISTVYMELSRLRSDDTVVYFCARHAFYRNYEYFDVWGTGTMVTVSS
VL: DIVMTQAPFSSPVTLGTPASISCRSSKSLLHSNGITYLYWYQQRPGQSPRLLIYQMSNLASGVPDRFSSSGSGTDFTLKISRVEAEDVGVYYCAQNLELPLTFGAGTKLEIK
notes: IgG1, kappa; tested as culture supernatant; also called VH-HM3 / VL-HM3
B10: humanized antibody VH2-VL3 (antibody, V domains shown)
VH: EVQLVQSGAEVKKPGASVKVSCKASGFTLTEYTIHWVRQAPGQGLEWIGWFYPGSGGIKYNEKFQDRVTLTADESASTVYMELSSLRSEDTAVYFCARHAFYRNYEYFDVWGTGTMVTVSS
VL: DIVMTQAPFSSPVTLGTPASISCRSSKSLLHSNGITYLYWYQQRPGQSPRLLIYQMSNLASGVPDRFSSSGSGTDFTLKISRVEAEDVGVYYCAQNLELPLTFGAGTKLEIK
notes: IgG1, kappa; tested as culture supernatant; also called VH-HM2 / VL-HM3
B11: humanized antibody VH1-VL3 (antibody, V domains shown)
VH: EVQLVQSGAEVKKPGASVKVSCKASGFTLTEYTIHWVRQAPGQGLEWIGWFYPGSGGIKYNEKFQDRVTLTADESISTVYMELSRLRSDDTAVYFCARHAFYRNYEYFDVWGTGTMVTVSS
VL: DIVMTQAPFSSPVTLGTPASISCRSSKSLLHSNGITYLYWYQQRPGQSPRLLIYQMSNLASGVPDRFSSSGSGTDFTLKISRVEAEDVGVYYCAQNLELPLTFGAGTKLEIK
notes: IgG1, kappa; tested as culture supernatant; also called VH-HM1 / VL-HM3
B12: humanized antibody VH4-VL1 (antibody, V domains shown)
VH: EVQLVQSGAEVKKPGASVKVSCKASGFTLTEYTIHWVKQAPGQGLEWIGWFYPGSGGIKYNEKFQDRVTLTADESSSTVYMELSRLRSDDTAVYFCARHAFYRNYEYFDVWGTGTMVTVSS
VL: DIVMTQAPFSLPVTPGTPASISCRSSKSLLHSNGITYLYWYLQKPGQSPQLLIYQMSNLASGVPDRFSSSGSGTDFTLKISRVEAEDVGVYYCAQNLELPLTFGAGTKLEIK
notes: IgG1, kappa; tested as culture supernatant; also called VH-HM4 / VL-HM1
B13: humanized antibody VH2-VL2 (antibody, V domains shown)
VH: EVQLVQSGAEVKKPGASVKVSCKASGFTLTEYTIHWVRQAPGQGLEWIGWFYPGSGGIKYNEKFQDRVTLTADESASTVYMELSSLRSEDTAVYFCARHAFYRNYEYFDVWGTGTMVTVSS
VL: DIVMTQAPLSLPVTPGTPASISCRSSKSLLHSNGITYLYWYLQKPGQSPQLLIYQMSNLASGVPDRFSSSGSGTDFTLKISRVEAEDVGVYYCAQNLELPLTFGAGTKLEIK
notes: IgG1, kappa; tested as culture supernatant; also called VH-HM2 / VL-HM2

Columns and labels:
CD101 [1] = target: T1, CD101; assay: cell-based or functional assay
CD101 [2] = target: T2, CD101; assay: FACS
CD101 [3] = target: T1, CD101; assay: FACS, culture supernatant on 293F-CD101 cells
Procedure: Expression vectors for humanized antibodies carrying a designed heavy-chain or light-chain sequence were transiently transfected into 293F cells in pairs according to a standard protocol. Specifically, PBS was added at 2 mL/well to a 6-well plate, then 2 μg of a pcDNA3.4-IgG1 expression vector and 2 μg of a pcDNA3.4-IgKc expression vector were added, and thorough mixing was conducted by pipetting up and down. 12 μL of a LVTransm transfection reagent was added, then thorough mixing was immediately conducted by pipetting up and down, and the plate was allowed to stand at room temperature for 10 min. A DNA/LVTransm complex was added to 3 mL of 293F cells, and gentle shaking was conducted for thorough mixing. The cells were further cultured for 3 d in a 37° C. and 5% CO₂ incubator, and a culture supernatant was collected through centrifugation and tested by FACS.
FACS was conducted according to a standard protocol. […] Cells were washed with PBS 3 times. 100 μL of a secondary antibody (PE-anti-human IgG, which was diluted 1:200) was added, thorough mixing was conducted, and incubation was conducted for 45 min at room temperature in the dark. Cells were washed with PBS 3 times and then resuspended with 500 μL of PBS. A fluorescence intensity was read by a multimode microplate reader for FACS analysis. […] In the follow-up experiments, the four combinations of VH1-VL1, VH1-VL2, VH3-VL1, and VH3-VL2 (hu.CA1 to hu.CA4) were taken as examples for antibody purification and affinity testing.

Row | Binder | inhibitory effect for CD101 (flow cytometry of CD101 on Jurkat cells overexpressing CD101, 3 h, 1,600 ng/mL) (CD101 [1]) [%] | inhibitory effect for CD101 (flow cytometry of CD101 on Jurkat cells overexpressing CD101, 8 h, 1,600 ng/mL) (CD101 [1]) [%] | EC50 (CD101 [2]) [µg/mL] | binding result (CD101 [3])
1 | B1 | ~80 | ≥ 90 | 8.49 | 
2 | B2 | ~80 | ≥ 90 | 6.62 | 
3 | B3 | ~80 | ≥ 90 | 7.9 | 
4 | B4 | ~80 | ≥ 90 | 11 | 
5 | B5 | ~80 | ≥ 90 | 9.1 | 
6 | B6 |  |  |  | binds
7 | B7 |  |  |  | binds
8 | B8 |  |  |  | binds
9 | B9 |  |  |  | binds
10 | B10 |  |  |  | binds
11 | B11 |  |  |  | binds
12 | B12 |  |  |  | binds
13 | B13 |  |  |  | binds
